The labels stand for the following.
B1: glmS ribozyme (parent)
chain: AUAAAAGCGCCAGAACUACAGAAAUGUAGUUGACGAGGAGGAGGUUUAUCGAAUUUUCGGCGGAUGCCUCCAAA

± gives the standard error. Variants at the floor of the assay were thinned out. Some results are limits rather than exact numbers.

Conditions in all cases: with glucosamine-6-phosphate
Variants of B1 are the subject of data set [1]. Briefly: self-cleavage kobs at 40 uM GlcN6P; higher = faster cleavage; RNA array. In short, it runs like this: (§1)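 Glucosamine-6-phosphate in HEPES/KCl/Mg(OAc)2 buffer, at 40 μM to 10 mM, was flowed over barcoded ribozyme variants transcribed in situ by E. coli RNA polymerase on sequenced MiSeq chips. Tracking was through a hybridised Cy3 probe at 37 °C. kobs, kcat and KM came from exponential decay fits and weighted Michaelis–Menten fits of normalised per-tile medians.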

Data set [2] covers variants of B1. Briefly: self-cleavage kobs at 160 uM GlcN6P; higher = faster cleavage; RNA array. In short, it runs like this: as §1
The variants in data set [3] derive from B1. Briefly: self-cleavage kobs at 640 uM GlcN6P; higher = faster cleavage; RNA array. In short, it runs like this:
as §1

Variants of B1 are the subject of data set [4]. Briefly: self-cleavage kobs at 2500 uM GlcN6P; higher = faster cleavage; RNA array. A digest of the protocol: as §1
Variants of B1 are the subject of data set [5]. Briefly: self-cleavage kobs at 10000 uM GlcN6P; higher = faster cleavage; RNA array. A digest of the protocol: as §1

On to G13C G59U, for which, in data set [1], the “self-cleavage kobs at 40 uM GlcN6P” value is less than 1e-05 s⁻¹. Moreover, in data set [2], the “self-cleavage kobs at 160 uM GlcN6P” value is less than 1e-05 s⁻¹. Besides, in data set [3], the “self-cleavage kobs at 640 uM GlcN6P” value is less than 1e-05 s⁻¹. Besides, the “self-cleavage kobs at 2500 uM GlcN6P” value in data set [4] was less than 1e-05 s⁻¹.
As for U45G C61G, the “self-cleavage kobs at 40 uM GlcN6P” value in data set [1] is less than 1e-05 s⁻¹. Besides, in data set [2], the “self-cleavage kobs at 160 uM GlcN6P” value is less than 1e-05 s⁻¹. In addition, the “self-cleavage kobs at 640 uM GlcN6P” value in data set [3] is less than 1e-05 s⁻¹. The “self-cleavage kobs at 2500 uM GlcN6P” value in data set [4] is less than 1e-05 s⁻¹. For the same variant, the “self-cleavage kobs at 10000 uM GlcN6P” value in data set [5] was less than 1e-05 s⁻¹.
Take G60U A64G: in data set [1], the “self-cleavage kobs at 40 uM GlcN6P” value was less than 1e-05 s⁻¹. For the same variant, in data set [2], the “self-cleavage kobs at 160 uM GlcN6P” value is less than 1e-05 s⁻¹. Besides, the “self-cleavage kobs at 640 uM GlcN6P” value in data set [3] is less than 1e-05 s⁻¹. In data set [4], the “self-cleavage kobs at 2500 uM GlcN6P” value is less than 1e-05 s⁻¹. The “self-cleavage kobs at 10000 uM GlcN6P” value in data set [5] is less than 1e-05 s⁻¹.
As to G60C G62C, in data set [1], the “self-cleavage kobs at 40 uM GlcN6P” value is less than 1e-05 s⁻¹. The “self-cleavage kobs at 160 uM GlcN6P” value in data set [2] is less than 1e-05 s⁻¹.
On to U46C G62C, for which the “self-cleavage kobs at 40 uM GlcN6P” value in data set [1] is less than 1e-05 s⁻¹. Besides, in data set [5], the “self-cleavage kobs at 10000 uM GlcN6P” value is less than 1e-05 s⁻¹.
On to C34U U55A G60U, for which the “self-cleavage kobs at 40 uM GlcN6P” value in data set [1] is less than 1e-05 s⁻¹. For the same variant, the “self-cleavage kobs at 640 uM GlcN6P” value in data set [3] is less than 1e-05 s⁻¹.
In the case of C8A A39C, the “self-cleavage kobs at 40 uM GlcN6P” value in data set [1] is less than 1e-05 s⁻¹. Moreover, the “self-cleavage kobs at 160 uM GlcN6P” value in data set [2] is less than 1e-05 s⁻¹. Besides, the “self-cleavage kobs at 640 uM GlcN6P” value in data set [3] is less than 1e-05 s⁻¹. For the same variant, the “self-cleavage kobs at 10000 uM GlcN6P” value in data set [5] is less than 1e-05 s⁻¹.
Take C50G G62U C68G: the “self-cleavage kobs at 40 uM GlcN6P” value in data set [1] was determined as 0.000123 ± 3.2e-05 s⁻¹. In addition, the “self-cleavage kobs at 10000 uM GlcN6P” value in data set [5] amounted to 9.97e-05 ± 2.5e-05 s⁻¹.
The matching figures for A14G A53U U55G: 0.000607 ± 0.00013 s⁻¹ and 0.036 ± 0.013 s⁻¹.
For G38U U46A, the “self-cleavage kobs at 40 uM GlcN6P” value in data set [1] is less than 1e-05 s⁻¹. For the same variant, the “self-cleavage kobs at 160 uM GlcN6P” value in data set [2] is less than 1e-05 s⁻¹. For the same variant, the “self-cleavage kobs at 2500 uM GlcN6P” value in data set [4] is less than 1e-05 s⁻¹.
On to G29U A42G G43A, for which the “self-cleavage kobs at 40 uM GlcN6P” value in data set [1] was less than 1e-05 s⁻¹.
As for U55A C67G, the “self-cleavage kobs at 40 uM GlcN6P” value in data set [1] came out at 0.000126 ± 3.4e-05 s⁻¹. For the same variant, in data set [2], the “self-cleavage kobs at 160 uM GlcN6P” value was determined as 0.000104 ± 2.1e-05 s⁻¹. Further, the “self-cleavage kobs at 640 uM GlcN6P” value in data set [3] worked out at 0.000179 ± 2.8e-05 s⁻¹. Further, the “self-cleavage kobs at 2500 uM GlcN6P” value in data set [4] stood at 0.00013 ± 2e-05 s⁻¹. Further, the “self-cleavage kobs at 10000 uM GlcN6P” value in data set [5] is 0.00061 ± 0.00014 s⁻¹.
The matching figures for U54A C71A: 0.000351 ± 6.3e-05 s⁻¹, 0.000583 ± 8.5e-05 s⁻¹, 0.000818 ± 0.00011 s⁻¹, 0.00847 ± 0.0023 s⁻¹ and 0.0109 ± 0.0026 s⁻¹.
As to G41U U55G C68U C70U, the “self-cleavage kobs at 40 uM GlcN6P” value in data set [1] was less than 1e-05 s⁻¹.
In the case of U56A G59C, the “self-cleavage kobs at 40 uM GlcN6P” value in data set [1] was less than 1e-05 s⁻¹. Further, the “self-cleavage kobs at 160 uM GlcN6P” value in data set [2] is less than 1e-05 s⁻¹. Also, the “self-cleavage kobs at 640 uM GlcN6P” value in data set [3] is less than 1e-05 s⁻¹. In addition, the “self-cleavage kobs at 2500 uM GlcN6P” value in data set [4] was less than 1e-05 s⁻¹. Further, the “self-cleavage kobs at 10000 uM GlcN6P” value in data set [5] is less than 1e-05 s⁻¹.
With A6C C8A, in data set [1], the “self-cleavage kobs at 40 uM GlcN6P” value is less than 1e-05 s⁻¹. In addition, the “self-cleavage kobs at 160 uM GlcN6P” value in data set [2] is less than 1e-05 s⁻¹. For the same variant, the “self-cleavage kobs at 640 uM GlcN6P” value in data set [3] was less than 1e-05 s⁻¹. For the same variant, in data set [4], the “self-cleavage kobs at 2500 uM GlcN6P” value is less than 1e-05 s⁻¹. For the same variant, the “self-cleavage kobs at 10000 uM GlcN6P” value in data set [5] was less than 1e-05 s⁻¹.
With G35C C58A G62U, the “self-cleavage kobs at 40 uM GlcN6P” value in data set [1] is less than 1e-05 s⁻¹.
For the variant A33C G43C, the “self-cleavage kobs at 40 uM GlcN6P” value in data set [1] is less than 1e-05 s⁻¹. Further, the “self-cleavage kobs at 160 uM GlcN6P” value in data set [2] was less than 1e-05 s⁻¹. In addition, in data set [3], the “self-cleavage kobs at 640 uM GlcN6P” value was less than 1e-05 s⁻¹. Besides, the “self-cleavage kobs at 2500 uM GlcN6P” value in data set [4] was less than 1e-05 s⁻¹. The “self-cleavage kobs at 10000 uM GlcN6P” value in data set [5] was less than 1e-05 s⁻¹.
Turning to C10G G43U U65A, the “self-cleavage kobs at 40 uM GlcN6P” value in data set [1] is less than 1e-05 s⁻¹. Besides, the “self-cleavage kobs at 2500 uM GlcN6P” value in data set [4] is less than 1e-05 s⁻¹.
Regarding A14G U31A A36U A64G, the “self-cleavage kobs at 40 uM GlcN6P” value in data set [1] is less than 1e-05 s⁻¹.

These data come from the supplement of paper PMC7125110.
